Data taken from the supplement of paper PMC12667976.
± gives the standard error.

B1: library; numbered along this chain (parent)
chain: MATDAALRRLLRLHRTEIAVAVDSAFPLLHALADHDVVPEDKFQETLHLKEKEGCPQAFHALLSWLLTQDSTAILDFWRVLFKDYNLERYGRLQPILDSFPKDVDLSQPRKGRKPPAVPKALVPPPRLPTKRKASEEARAAAPAALTPRGTASPGSQLKAKPPKKPESSAEQQRLPLGNGIQTMSASVQRAVAMSSGDVPGARGAVEGILIQQVFESGGSKKCIQVGGEFYTPSKFEDSGSGKNKARSSSGPKPLVRAKGAQGAAPGGGEARLGQQGSVPAPLALPSDPQLHQKNEDECAVCRDGGELICCDGCPRAFHLACLSPPLREIPSGTWRCSSCLQATVQEVQPRAEEPRPQEPPVETPLPPGLRSAGEEVRGPPGEPLAGMDTTLVYKHLPAPPSAAPLPGLDSSALHPLLCVGPEGQQNLAPGARCGVCGDGTDVLRCTHCAAAFHWRCHFPAGTSRPGTGLRCRSCSGDVTPAPVEGVLAPSPARLAPGPAKDDTASHEPALHRDDLESLLSEHTFDGILQWAIQSMARPAAPFPS

Variants of: B1
Experiment: AIRE transcriptional activation functional score (insulin promoter-GFP; nonsense median 0, synonymous median 1) (normalised score); higher = higher AIRE activity (more reporter activation)
Conditions: with insulin promoter-GFP reporter in HEK293
Method: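 Deep mutational scan of full-length human AIRE (codon-optimized cDNA, DT-POPCode NNN libraries over three regions) integrated at a Bxb1 landing pad in HEK293 cells carrying an insulin core promoter-GFP reporter at a Flp-In site. Cells were sorted for the top 10% GFP about 14 days after transfection. Variant frequency log-ratios (select vs non-select, TileSeq) were rescaled so that the nonsense median is 0 and the synonymous median is 1, then averaged over biological replicates.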

Variant	AIRE transcriptional activation functional score
C337H	1.85 ± 0.1
P400Q	1.52 ± 0.52
H415Y	1.42 ± 0.36
H415L	1.22 ± 0.48
H415T	0.92 ± 0.39
F230K	0.376 ± 0.08
L177C	0.72 ± 0.4
P116K	0.772 ± 0.26
L7K	-0.0956 ± 0.16
S248F	1.09 ± 0.22
S248D	1.25 ± 0.58
I181L	0.717 ± 0.29
I181T	0.242 ± 0.54
A496V	0.988 ± 0.23
A496M	1.5 ± 0.068
G219N	0.637 ± 0.082
F453S	0.166 ± 0.19
C449S	-0.103 ± 0.24
C475T	0.102 ± 0.073
C475V	0.0724 ± 0.17
R132I	-0.0777 ± 0.2
T364D	0.191 ± 0.15
K50C	0.454 ± 0.28
T130V	0.747 ± 0.4

Variant	AIRE transcriptional activation functional score
R8S	0.281 ± 0.48
R8T	-0.0815 ± 0.38
P252R	0.567 ± 0.33
H454K	0.0788 ± 0.13
S491F	1.05 ± 0.048
S491D	0.749 ± 0.32
S135V	0.924 ± 0.21
S135E	1.38 ± 0.099
R257C	-0.159 ± 0.18
S24H	-0.0302 ± 0.21
S24A	-0.0275 ± 0.75
P129E	-0.0453 ± 0.46
P129M	0.564 ± 0.18
A142I	0.926 ± 0.27
A403Q	0.915 ± 0.11
H448L	1.07 ± 0.17
V118Y	1.42 ± 0.34
D76A	0.43 ± 0.44
S535F	0.394 ± 0.19
S278Q	1.16 ± 0.17
Q276D	1.11 ± 0.42
E167R	0.328 ± 0.84
G469S	1.15 ± 0.27
H396P	1.02 ± 0.38

Variant	AIRE transcriptional activation functional score
D526N	0.21 ± 0.049
E270D	1.37 ± 0.18
E270K	0.735 ± 0.032
K133S	0.436 ± 0.32
K133A	-0.0211 ± 0.57
F459K	0.78 ± 0.18
P401M	0.689 ± 0.11
F100M	-0.57 ± 0.1
L273W	1.37 ± 0.051
P539Q	0.339 ± 0.087
K253T	0.479 ± 0.19
K253D	-0.542 ± 0.09
G382V	1.22 ± 0.18
L397V	0.641 ± 0.29
L414A	1.49 ± 0.098
L414K	0.634 ± 0.11
C311M	1.62 ± 0.066
E508M	0.536 ± 0.14
L370F	0.823 ± 0.19
L370I	1.25 ± 0.1
E375T	0.785 ± 0.1
A191H	1.25 ± 0.3
E296P	0.799 ± 0.32
S474H	0.593 ± 0.069

Variant	AIRE transcriptional activation functional score
A134R	0.538 ± 0.66
G387V	1.5 ± 0.2
E329L	1.16 ± 0.3
E329P	0.962 ± 0.13
S324L	1.11 ± 0.22
S411N	0.99 ± 0.14
V38Q	-0.0109 ± 0.15
T68D	-0.277 ± 0.067
V362L	0.999 ± 0.16
V362F	0.981 ± 0.12
L341M	0.759 ± 0.046
C223E	0.793 ± 0.14
L62C	0.584 ± 0.15
R316T	1.06 ± 0.43
R316W	1.28 ± 0.018
P360R	1.02 ± 0.29
P360Y	1.2 ± 0.31
W531G	0.0105 ± 0.07
V484Q	1.72 ± 0.046
L10C	-0.25 ± 0.31
A451W	0.516 ± 0.2
D503A	0.958 ± 0.2
D503G	0.835 ± 0.25
A540H	0.844 ± 0.43

Variant	AIRE transcriptional activation functional score
L128Q	0.496 ± 0.2
L128I	1.19 ± 0.19
G267Y	1.02 ± 0.5
S464I	1.17 ± 0.076
P126S	0.0633 ± 0.23
I533N	-0.116 ± 0.23
G486A	0.707 ± 0.48
G486F	1.46 ± 0.11
H523S	1.25 ± 0.23
P381W	0.42 ± 0.044
L392A	0.196 ± 0.14
A121D	0.847 ± 0.36
A121N	1.1 ± 0.17
G242L	1.13 ± 0.19
T3W	2.08 ± 0.48
L444D	1.55 ± 0.075
A432F	1.06 ± 0.25
D304C	1.29 ± 0.03
L158N	1.19 ± 0.29
Q425W	1.28 ± 0.024
L97N	-0.0633 ± 0.093
L97R	0.805 ± 0.28
A343Q	0.485 ± 0.071
K221D	0.706 ± 0.07

Variant	AIRE transcriptional activation functional score
L366K	1.37 ± 0.08
P115G	0.828 ± 0.45
P405Y	1.17 ± 0.34
P499L	1.11 ± 0.32
K165E	1.01 ± 0.52
R272Q	0.947 ± 0.41
S339F	0.807 ± 0.069
L385G	1 ± 0.09
A386M	1.53 ± 0.057
A386S	0.756 ± 0.27
F77C	0.198 ± 0.17
Q213T	0.965 ± 0.1
Q213V	-0.393 ± 0.15
S412G	1.03 ± 0.3
S412T	1.02 ± 0.18
F525D	0.0868 ± 0.17
A284S	1.1 ± 0.28
Q57K	1.12 ± 0.16
G274F	0.89 ± 0.068
P254K	0.683 ± 0.3
F59C	-0.268 ± 0.16
A258W	1.05 ± 0.052
A258V	1.36 ± 0.27
P416N	1.21 ± 0.23

Variant	AIRE transcriptional activation functional score
P416G	0.937 ± 0.33
P542K	0.249 ± 0.14
D442T	0.24 ± 0.072
G269P	1.44 ± 0.093
D439I	0.279 ± 0.21
Y85F	0.722 ± 0.33
G438I	1.08 ± 0.32
L75V	1.31 ± 0.33
P148R	0.931 ± 0.74
P148G	0.361 ± 0.76
D297S	0.838 ± 0.31
W65E	0.0731 ± 0.092
C314R	0.842 ± 0.34
Q534H	0.807 ± 0.086
K42N	0.98 ± 0.81
P162G	1.1 ± 0.26
A537S	1.1 ± 0.22
I224Q	0.197 ± 0.19
D514N	0.242 ± 0.062
H319Q	1.44 ± 0.099
C302G	0.54 ± 0.15
R473V	0.334 ± 0.23
P422E	0.766 ± 0.16
